B1: GLP1-G8_I_VARfeIgG2: Formula I GLP1-G8 contiguous polypeptide comprising variant feline IgG2 Fc of SEQ ID NO: 17 (Gly to Cys at position 14) (protein)
chain: HGEGTFTSDVSSYLEGQAAKEFIAWLVKGGGGSGGGGSGGGGSGGGGSPKTASTIESKTGECPKCPVPEIPGAPSVFIFPPKPKDTLSISRTPEVTCLVVDLGPDDSNVQITWFVDNTEMHTAKTRPREEQFNSTYRVVSVLPILHQDWLKGKEFKCKVNSKSLPSAMERTISKAKGQPHEPQVYVLPPTQEELSENKVSVTCLIKGFHPPDIAVEWEITGQPEPENNYQTTPPQLDSDGTYFLYSRLSVDRSHWQRGNTYTCSVSHEALHSHHTQKSLTQSPGK
modifications: Synthetic GLP1-G8_I_VARfeIgG2

Assays:
[1] = cited from earlier work
[2] = in vivo, sc, 2 mg/kg
[3] = target: T1, GLP1R (Homo sapiens, UniProt P43220); assay: Long-term storage stability, CHOK-1-GL1R cells with cAMP-Glo Max Assay; assay type: cell-based; details: stored in PBS, pH7.2, 1.3 mg/mL, 2-8° C. for one year
T1 construct: host or cells: CHO-K1 (hamster ovarian cell line), CHOK-1-GL1R
Protocol: GLP1-G8_I_VARfeIgG2 (SEQ ID NO: 26) was stored in PBS, pH7.2 at a concentration of 1.3 mg/mL, placed in 1.5 mL Eppendorf tube, and stored at 2-8° C. for one year (Lot 2-29-2016). GLP1-G8_I_VARfeIgG2 (SEQ ID NO: 26) was also stored in PBS, pH7.2 at a concentration of 10 mg/mL, placed in 1.5 mL Eppendorf tube, and stored at 2-8° C. for one day (Lot 2-2-2017).
CHOK-1-GL1R cells were plated in a 96-well plate (Corning, Cat #3610) at a density of 20,000 cells per well in F-12K Medium (ATCC, Cat #ATCC® 30-2004) supplemented with 10% Fetal Bovine Serum, heat inactivated (Sigma, Cat #2868) and incubated at 37° C., 5% CO2 for 24 hours. […] (Sigma Aldrich, Cat. #B8279) to a final concentration 100 μL.
The cells were incubated at room temperature for 30 minutes. In this process, upon GLP1 binding to the Gs-coupled GLP1R receptor, Gs stimulates adenylate cyclase to generate cAMP. […]
Mono-oxygenation of luciferin was catalyzed by luciferase in the presence of Mg^2+ and ATP that presented in the cell lysate, resulting in a luminescent signal proportional to the amount of ATP in the cells. At the end of 10 min incubation, the plate was read on a Synergy HT microplate reader (Biotek, Winooski, VT). Luminescence is proportional to ATP levels but inversely proportional to cAMP levels. Thus, as cAMP concentration increases, luminescence decreases.

[4] = In vivo pharmacokinetics in cats, serum concentration by cell-based activity assay; details: single dose 2 mg/kg subcutaneous, 5 cats, 0 to 168 hours
[5] = assay type: in vitro ADME, feline; details: pH 7.2
Protocol: (§1) GLP1-G8_I_VARfeIgG2 (SEQ ID NO: 26) was stored in PBS, pH7.2 with feline serum at 37° C. for 24 hours to test in vitro serum stability.

[6] = in vivo, sc, 2 mg/kg; remark: listed apart in the source
Protocol: (§2) The plate was sealed and incubated overnight at 4° C. […] After removing the blocking buffer, serial dilutions of reference standard and samples in blocking buffer were added (100 μl/well) and the plate was incubated for 2 hours at room temperature. […] TMB substrate (ScyTek, Catalog No. TM1999) was added (100 μl/well) and allowed to incubate at room temperature for 1 minute. The reaction was stopped by the addition of 2M H2SO4 (50 μl/well).

[7] = assay type: in vitro ADME, feline
Protocol: (lane 1), in PBS for 24 hours at 37° C. (lane 2), in PBS for 24 hours at 4° C. (lane 9). A mouse anti-GLP1 antibody was used.
as §1

[8] = Differential scanning fluorimetry, stability at various pH; assay type: physicochemical; details: n = 3, 10 μg construct
Excerpt: Furthermore, differential scanning fluorimetry was used to assess the stability of the contiguous polypeptides at various pH, as reflected by mean melting point temperature (n=3) (Table 9, below). The increased stability of the variant feline IgG2 hinge is most evident at pH 6.

[9] = In vivo pharmacokinetics in cats, serum concentration by quantitative ELISA; details: single dose 2 mg/kg subcutaneous, 5 cats
Protocol: as §2

T1 sequence (P43220 24-463): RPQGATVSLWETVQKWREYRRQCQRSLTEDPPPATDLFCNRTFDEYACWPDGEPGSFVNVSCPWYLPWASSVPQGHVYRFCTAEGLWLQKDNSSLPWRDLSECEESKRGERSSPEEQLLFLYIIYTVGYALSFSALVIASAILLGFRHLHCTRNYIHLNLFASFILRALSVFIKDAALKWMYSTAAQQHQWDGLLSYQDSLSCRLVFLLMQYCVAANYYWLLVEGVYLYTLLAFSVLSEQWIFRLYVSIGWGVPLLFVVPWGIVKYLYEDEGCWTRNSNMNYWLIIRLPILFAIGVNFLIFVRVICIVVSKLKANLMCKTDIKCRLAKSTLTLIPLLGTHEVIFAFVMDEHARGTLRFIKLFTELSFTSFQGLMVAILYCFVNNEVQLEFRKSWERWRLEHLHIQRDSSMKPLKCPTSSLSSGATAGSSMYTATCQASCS

| Molecule | in vivo half-life [1] | mean t1/2 [2] | cellular activity after storage [3] | mean AUC [4] | activity after serum incubation [5] | mean serum half-life (t1/2) [6] | degradation by Western blot [7] | Mean Melting Point Temperature (Tm) ([8]; pH 5) | Mean Melting Point Temperature (Tm) ([8]; pH 6) | Mean Melting Point Temperature (Tm) ([8]; pH 7) | Mean Melting Point Temperature (Tm) ([8]; pH 8) | average Cmax [9] | average Tmax [9] | mean area under the curve (AUC) [9] |
| --- | --- | --- | --- | --- | --- | --- | --- | --- | --- | --- | --- | --- | --- | --- |
| Native GLP1: Glucagon-like peptide-1 (GLP1), a potent antihyperglycemic hormone | approximately 2 minutes | – | – | – | – | – | – | – | – | – | – | – | – | – |
| B1 | – | 36 h | maintained cellular activity | about 840 μg(h)/mL | activity was maintained | 39 h | no visible degradations were observed | 53.1 °C | 59.7 °C | 59.9 °C | 58.2 °C | 12000 ng/mL | 22 h | about 950 m(h)/mL |
